Laboratory results published in patent US20210079109A1 (Regeneron, published 2021).

T1: human CD63 (human, UniProt P08962 2-238)
T1 construct: stably transfected in NIH3T3/hCD63; The cell line is named under assay; also called hCD63
T1 sequence: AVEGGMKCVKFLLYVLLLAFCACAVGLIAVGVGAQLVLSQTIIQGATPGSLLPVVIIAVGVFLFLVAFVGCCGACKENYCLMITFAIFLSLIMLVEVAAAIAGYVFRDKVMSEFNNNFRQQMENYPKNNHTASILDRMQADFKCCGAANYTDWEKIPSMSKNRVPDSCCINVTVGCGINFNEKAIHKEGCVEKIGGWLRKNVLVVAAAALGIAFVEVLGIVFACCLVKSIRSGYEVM


Assays:
human CD63 [1] = target: T1, human CD63; assay: ECL, NIH3T3/hCD63 cells
How it was run: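 Detached cells (~2.0×10⁴/well: NIH3T3/hCD63, LNCAP, U87MG, or parental NIH3T3 as negative control) were plated on carbon-electrode plates and blocked with 2% BSA. Anti-CD63 or isotype antibodies (1.7 pM–100 nM, in duplicate) were bound 1 h at RT, then washed. Signal read as electrochemiluminescence.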

[2] = target: T2, recombinant human CD63 extracellular loop 2 expressed with a C-terminal Myc-Myc-hexahistidine (human); assay: SPR Biacore, mAb captured, 25C
T2 construct: also called hCD63 EC loop 2-MMH; human CD63 EC loop 2-MMH
T2 sequence (chain, as listed by the source limits assumed): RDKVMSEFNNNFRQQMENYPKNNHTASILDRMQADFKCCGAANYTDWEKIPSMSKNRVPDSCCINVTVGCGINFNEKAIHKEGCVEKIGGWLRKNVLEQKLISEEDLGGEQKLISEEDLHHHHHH
How it was run: (§1)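 Anti-CD63 mAbs captured on anti-mouse Fc or anti-human Fab surfaces; CD63 EC2 reagents flowed in HBS-ET, pH 7.4, at 25° C or 37° C. ka and kd from 1:1 binding model with mass transport limitation; KD and t½ calculated from kinetic rates.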

[3] = target: T2, recombinant human CD63 extracellular …; assay: SPR Biacore, mAb captured, 37C
How it was run: as §1

[4] = target: T3, recombinant human CD63 extracellular loop 2 expressed with a C-terminal human Fc tag (human); assay: SPR Biacore, mAb captured, 37C
T3 construct: also called hCD63 EC loop 2-hFc; human CD63 EC loop 2-Fc
T3 sequence (chain, as listed by the source limits assumed): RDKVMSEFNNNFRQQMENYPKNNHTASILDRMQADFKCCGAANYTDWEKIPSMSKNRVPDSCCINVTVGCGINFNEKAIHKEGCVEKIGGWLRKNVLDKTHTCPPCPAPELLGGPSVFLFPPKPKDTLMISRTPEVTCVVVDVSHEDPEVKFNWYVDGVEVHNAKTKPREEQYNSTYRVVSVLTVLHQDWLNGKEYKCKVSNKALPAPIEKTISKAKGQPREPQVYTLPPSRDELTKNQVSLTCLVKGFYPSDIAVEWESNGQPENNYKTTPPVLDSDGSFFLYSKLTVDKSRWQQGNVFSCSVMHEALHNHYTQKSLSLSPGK
How it was run: as §1

human CD63 [5] = target: T1, human CD63; assay: imaging of stained T47D cells, 10 ug/mL antibody
Protocol: To stain, quadruplicate plates of cells were incubated with 10 μg/mL of anti-CD63 antibodies that was diluted in 2% FBS in PBS, without Calcium and Magnesium (Irving, Cat #9240) (staining buffer) for 30 minutes at 4° C. […] Two plates were immediately fixed and stained with 4% paraformaldehyde (PFA; ThermoFisher, Cat #28908)+5 uM DRAQ5 (ThermoFisher, Cat #62251) in PBS for 20 minutes (non-internalization plates). The remaining two plates were incubated with growth media at 37° C. for 2 hours followed by fixation and staining for 20 minutes using a solution of 4% PFA+5 μM DRAQ5 diluted in PBS (internalization plates). After fixation, all plates were washed once with PBS. One non-internalization plate and one internalization plate were incubated with an anti-Alexa Fluor 488 antibody (Regeneron) at 50 μg/mL in PBS overnight at 4° C. to quench surface Alexa Fluor 488 fluorescence. The remaining plates were incubated with PBS only. Confocal images were acquired on the Opera Phenix (Perkin Elmer) at 40× magnification. Harmony analysis software (Perkin Elmer) was utilized to identify DRAQ5-labeled cells and the total Alexa-Fluor 488 relative fluorescent units (RFU) per cell was determined. The total binding at 4° C. (RFU values of 4° C. unquenched wells), total binding at 37° C. (RFU values of 37° C. unquenched wells), the total internalized RFU, and the % Internalization were determined for each antibody as shown in Table 1. For all calculations, background fluorescence from 2nd Ab only control wells were subtracted from every well. Total internalized RFU was calculated as follows: Total RFU of 37° C. unquenched samples−Surface RFU at 37° C. Surface RFU is defined as unquenched RFU at 37° C.−quenched RFU at 37° C.)/QE. QE (quenching efficiency) is defined as: 1−(Total RFU of 4° C. quenched sample/Total RFU of 4° C. unquenched sample). The % Internalization was determined from the following formula: (Total internalized RFU at 37° C./Total RFU at 37° C.)*100.

Binder | EC50 (human CD63 [1]) [nM] | binding ratio at 3.7 nM vs NIH3T3 (human CD63 [1]) [fold] | 100 nM Ag Bound (RU) [2] [RU] | Kd [2] [nM] | koff [2] [s⁻¹] | kon [2] [M⁻¹ s⁻¹] | t1/2 [2] [min] | 100 nM Ag Bound (RU) [3] [RU] | Kd [3] [nM] | koff [3] [s⁻¹] | kon [3] [M⁻¹ s⁻¹] | t1/2 [3] [min] | 100 nM Ag Bound (RU) [4] [RU] | Kd [4] [nM] | koff [4] [s⁻¹] | kon [4] [M⁻¹ s⁻¹] | t1/2 [4] [min] | Total RFU at 4C (human CD63 [5]) [RFU] | Total RFU at 37C (2 h) (human CD63 [5]) [RFU]
H2M12450N (antibody, V domains shown, also called H2aM12450N; mAb12450) VH: QVQLQESGPKVVKPSETLSLTCTVSGGSISSYYWNWIRQSPGKGLEWIGYTKRGYTDYNPSLRSRVTISEDTSKNQFSLRISSVTAADTAVYYCAQMGWGSHAFDMWGQGTMVAVSS VL: EIVLTQSPGTLSLSPGERATLSCRASQSVNSRYLAWYQQKPGQAPRLLIYGASSRATGIPDRCSGSGSGTDFTLTISRLEPEDFAVYYCQQYGSSPWTFGQGTKVEIK | 0.97 | 281 | 65 | 1.23 | 0.000279 | 227000 | 41 | 58 | 1.15 | 0.000201 | 175000 | 57 | 138 | 0.119 | 4.89e-05 | 411000 | 236 | 2.36e+06 | 2.94e+06
H2M12395N (antibody, V domains shown, also called H2aM12395N) VH: QVQLQESGPRLVKPSETLSLTCIVSGGSISNFYWNWIRQSPGKGLEWIGYFFYTGTIDYNPSLKSRVTISLDTSKNQFSLNLRLLTAADAAVYYCARMGLGANAFDIWGHGTMVTVSS VL: EIVLTQSPGTLSLSPGERATLSCRASQHVSSNYLAWYQQKPGQAPRLLIYGGSSRATGIPDRFSGSGSGTDFTLTISRLEPADFAVFYCQQYGNSPWTFGQGTKVEMK | 0.57 | 91 | 42 | 11 | 0.00182 | 166000 | 6 | 31 | 56.4 | 0.00932 | 165000 | 1 | 123 | 3.38 | 0.00179 | 529000 | 6 | 1.5e+06 | 1.69e+06
H1M12451N (antibody, V domains shown) VH: QVQLQESGPGLMKPSETLSLTCTVSGGSFSSYYWNWIRQSPGKGLEWIGYIRYSGDTNYKPSLKSRFTISIDTSKNLFSLRLKSVTAADTAVYYCARMGLGSDAFDIWGQGTMVTVSS VL: EIVLTQSPGTLSLSPGERATLSCRASQSVNNNYLAWYQQKPGQAPRLLIYGVFNRATNIPDRFSGSGSGTDFTLTISRLEPEDFAVYYCQQYGSSPWTFGQGTKVEIK | 0.29 | 256 | 52 | 5 | 0.00043 | 85900 | 27 | 44 | 21.4 | 0.0019 | 88900 | 6 | 118 | 0.509 | 0.000331 | 651000 | 35 | 1.9e+06 | 2.32e+06
